Patent publication US10562935B2, “Stapled peptides and uses thereof” (London Health Sciences Centre Research Inc., priority 2015, dated 2020)
Bridges are numbered along the chain shown (N, C = ends).

Assays:
[1] = test system: RHAMM-overexpressing (LR21) cells; assay: Cell migration assay (Boyden chamber, Chemicon ECM510); assay type: cell-based; details: for inhibition of cell migration (in words): 10 ng/mL peptide, 20 hours, compared to 30% serum control; for Migration (% inhib.): % inhibition relative to positive control
Procedure, shortened: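 Serum-starved LR21 cells (7.5×10^4) placed in the upper Boyden chamber with or without 10 ng/mL peptide, with 30% FBS in DMEM as lower-chamber chemoattractant. Cells crossing the membrane after 20 h quantified by CyQUANT GR fluorescence (480/520 nm); mean of n=3, compared with 30% serum control.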

[2] = Circular dichroism (CD) spectroscopy of linear and stapled peptides in water or 40% TFE/water (Example 3); assay type: physicochemical; details: for [0]208 mean residue ellipticity: λ = 208 nm; for [0]222 mean residue ellipticity: λ = 222 nm
Procedure, shortened: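 Spectra 180–260 nm at 20 °C, 0.5 mM N-acetylated, C-amidated peptides in 0.1M phosphate buffer (water) or 40% TFE/water, 1 mm path, five scans averaged, buffer baseline subtracted. Mean residue ellipticity reported at 222 and 208 nm with the 222/208 ratio as helicity index.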

NF-κB = assay: Inflammation assay: NF-κB inducible SEAP reporter in RAW-Blue macrophages stimulated with PAM3CSK4; assay type: cell-based, murine; details: for Inflammation (% Inhib.): % inhibition relative to positive control; for inhibition of inflammation (SEAP / NF-κB activity, in words): 10 ng/mL peptide with 200 ng/mL PAM3CSK4, 18 hours, compared to +PAM3
Procedure, shortened: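 RAW-Blue murine RAW 264.7 macrophages carrying an NF-κB-inducible SEAP reporter were stimulated with 200 ng/mL PAM3CSK4 and given peptide at 10 ng/mL. After 18 h, supernatant SEAP was developed with QUANTI-BLUE for 20 min at 37 °C and read by absorbance at 630 nm. Values are mean and SDM of n=3.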

[3] = [θ]222/[θ]208 ratio in water, summary tables 15, 17, 19
[4] = as repeated in tables 16, 18, 20

Substance | inhibition of cell migration (in words) [1] | Migration (% inhib.) [1] | [0]208 mean residue ellipticity at λ=208 nm ([2]; 40% TFE/water) | [0]222/[0]208 ratio of ellipticities ([2]; 40% TFE/water) | [0]222 mean residue ellipticity at λ=222 nm ([2]; 40% TFE/water) | [θ]222/[θ]208 ratio of ellipticities [2, 3] | [θ]222/[θ]208 ratio of ellipticities [2, 4] | [0]222/[0]208 ratio of ellipticities ([2]; in water) | alpha-helical character by CD (in words) ([2]; in water) | [0]208 mean residue ellipticity at λ=208 nm ([2]; water) | [0]222/[0]208 ratio of ellipticities ([2]; water) | [0]222 mean residue ellipticity at λ=222 nm ([2]; water) | Inflammation (% Inhib.) (NF-κB) | inhibition of inflammation (SEAP / NF-κB activity, in words) (NF-κB) | [0]222/[0]208 ratio of ellipticities ([2]; in 40% TFE/water) | [0]208 mean residue ellipticity ([2]; in 40% TFE/water) | [0]208 mean residue ellipticity ([2]; in water) | [0]222 mean residue ellipticity ([2]; in 40% TFE/water) | [0]222 mean residue ellipticity ([2]; in water)
Ac-(cyclo-10-14, cyclo-15-19)-KIKHVVKLK[EENSK][EKSEK]SKLRSQLVKRK-NH2 (Ac-KIKHVVKLKEENSKEKSEKSKLRSQLVKRK-NH2; lactam 10-14, 15-19; SMILES CC[C@H](C)[C@H](NC(=O)[C@H](CCCCN)NC(C)=O)C(=O)N[C@@H](CCCCN)C(=O)N[C@@H](Cc1c[nH]cn1)C(=O)N[C@H](C(=O)N[C@H](C(=O)N[C@@H](CCCCN)C(=O)N[C@@H](CC(C)C)C(=O)N[C@@H](CCCCN)C(=O)N[C@H]1CCC(=O)NCCCC[C@@H](C(=O)N[C@H]2CCC(=O)NCCCC[C@@H](C(=O)N[C@@H](CO)C(=O)N[C@@H](CCCCN)C(=O)N[C@@H](CC(C)C)C(=O)N[C@@H](CCCNC(=N)N)C(=O)N[C@@H](CO)C(=O)N[C@@H](CCC(N)=O)C(=O)N[C@@H](CC(C)C)C(=O)N[C@H](C(=O)N[C@@H](CCCCN)C(=O)N[C@@H](CCCNC(=N)N)C(=O)N[C@@H](CCCCN)C(N)=O)C(C)C)NC(=O)[C@H](CCC(=O)O)NC(=O)[C@H](CO)NC(=O)[C@H](CCCCN)NC2=O)NC(=O)[C@H](CO)NC(=O)[C@H](CC(N)=O)NC(=O)[C@H](CCC(=O)O)NC1=O)C(C)C)C(C)C) [Compound 266] | significantly inhibit cell migration | 61 % inhib. | -2.11E04 deg cm^2 dmol^−1 | 0.84 | -1.77E04 deg cm^2 dmol^−1 | 0.63 | 0.63 | 0.63 | best improvement in helicity | -9.36E+03 deg cm^2 dmol^−1 | 0.63 | -5.89E+03 deg cm^2 dmol^−1 | 0 % Inhib. | – | – | – | – | – | –
Ac-(cyclo-10-14, cyclo-15-19)-KIKHVVKLK[EENSK][KKSEE]SKLRSQLVKRK-NH2 (Ac-KIKHVVKLKEENSKKKSEESKLRSQLVKRK-NH2; lactam 10-14, 15-19; SMILES CC[C@H](C)[C@H](NC(=O)[C@H](CCCCN)NC(C)=O)C(=O)N[C@@H](CCCCN)C(=O)N[C@@H](Cc1c[nH]cn1)C(=O)N[C@H](C(=O)N[C@H](C(=O)N[C@@H](CCCCN)C(=O)N[C@@H](CC(C)C)C(=O)N[C@@H](CCCCN)C(=O)N[C@H]1CCC(=O)NCCCC[C@@H](C(=O)N[C@H]2CCCCNC(=O)CC[C@@H](C(=O)N[C@@H](CO)C(=O)N[C@@H](CCCCN)C(=O)N[C@@H](CC(C)C)C(=O)N[C@@H](CCCNC(=N)N)C(=O)N[C@@H](CO)C(=O)N[C@@H](CCC(N)=O)C(=O)N[C@@H](CC(C)C)C(=O)N[C@H](C(=O)N[C@@H](CCCCN)C(=O)N[C@@H](CCCNC(=N)N)C(=O)N[C@@H](CCCCN)C(N)=O)C(C)C)NC(=O)[C@H](CCC(=O)O)NC(=O)[C@H](CO)NC(=O)[C@H](CCCCN)NC2=O)NC(=O)[C@H](CO)NC(=O)[C@H](CC(N)=O)NC(=O)[C@H](CCC(=O)O)NC1=O)C(C)C)C(C)C) [Compound 268] | – | 0 % inhib. | -.304E04 deg cm^2 dmol^−1 | 0.83 | -2.54E04 deg cm^2 dmol^−1 | 0.40 | 0.40 | – | – | -6.74E+03 deg cm^2 dmol^−1 | 0.40 | -2.71E+03 deg cm^2 dmol^−1 | 0 % Inhib. | – | – | – | – | – | –
Ac-(cyclo-10-14, cyclo-15-19)-KIKHVVKLK[KENSE][EKSEK]SKLRSQLVKRK-NH2 [Compound 269] | significantly inhibit cell migration | 61 % inhib. | -2.65E04 deg cm^2 dmol^−1 | 0.81 | -2.14E04 deg cm^2 dmol^−1 | 0.44 | 0.44 | – | – | -9.04E+03 deg cm^2 dmol^−1 | 0.44 | -3.99E+03 deg cm^2 dmol^−1 | 0 % Inhib. | – | – | – | – | – | –
Ac-(cyclo-11-15, cyclo-16-20)-KIKHVVKLKD[ENSQK][ESEVK]KLRSQLVKRIK-NH2 [Compound 267] | – | 0 % inhib. | -3.02E04 deg cm^2 dmol^−1 | 0.77 | -2.34E04 deg cm^2 dmol^−1 | 0.48 | 0.48 | 0.48 | – | -1.29E+04 deg cm^2 dmol^−1 | 0.48 | -6.14E+03 deg cm^2 dmol^−1 | 0 % Inhib. | – | – | – | – | – | –
Ac-(cyclo-28-32)-NLKQKIKHVVKLKDENSQLKSEVSKLR[EQLVK]RKQN-NH2 (Ac-NLKQKIKHVVKLKDENSQLKSEVSKLREQLVKRKQN-NH2; lactam 28-32; SMILES CC[C@H](C)[C@H](NC(=O)[C@H](CCCCN)NC(=O)[C@H](CCC(N)=O)NC(=O)[C@H](CCCCN)NC(=O)[C@H](CC(C)C)NC(=O)[C@H](CC(N)=O)NC(C)=O)C(=O)N[C@@H](CCCCN)C(=O)N[C@@H](Cc1c[nH]cn1)C(=O)N[C@H](C(=O)N[C@H](C(=O)N[C@@H](CCCCN)C(=O)N[C@@H](CC(C)C)C(=O)N[C@@H](CCCCN)C(=O)N[C@@H](CC(=O)O)C(=O)N[C@@H](CCC(=O)O)C(=O)N[C@@H](CC(N)=O)C(=O)N[C@@H](CO)C(=O)N[C@@H](CCC(N)=O)C(=O)N[C@@H](CC(C)C)C(=O)N[C@@H](CCCCN)C(=O)N[C@@H](CO)C(=O)N[C@@H](CCC(=O)O)C(=O)N[C@H](C(=O)N[C@@H](CO)C(=O)N[C@@H](CCCCN)C(=O)N[C@@H](CC(C)C)C(=O)N[C@@H](CCCNC(=N)N)C(=O)N[C@H]1CCC(=O)NCCCC[C@@H](C(=O)N[C@@H](CCCNC(=N)N)C(=O)N[C@@H](CCCCN)C(=O)N[C@@H](CCC(N)=O)C(=O)N[C@@H](CC(N)=O)C(N)=O)NC(=O)[C@H](C(C)C)NC(=O)[C@H](CC(C)C)NC(=O)[C@H](CCC(N)=O)NC1=O)C(C)C)C(C)C)C(C)C) [Compound 277] | significantly inhibit cell migration | 63 % inhib. | -3.10E04 deg cm^2 dmol^−1 | 0.85 | -2.65E04 deg cm^2 dmol^−1 | 0.64 | 0.64 | – | – | -1.46E+04 deg cm^2 dmol^−1 | 0.64 | -9.36E+03 deg cm^2 dmol^−1 | 8 % Inhib. | significantly inhibited inflammation | – | – | – | – | –
Ac-KIKHVVKLKDENSQLKSEVSKLRSQLVKRK-NH2 [Compound 265] | significantly inhibit cell migration | 63 % inhib. | -2.72E04 deg cm^2 dmol^−1 | 0.80 | -2.18E04 deg cm^2 dmol^−1 | 0.40 | 0.40 | – | – | -2.73E+04 deg cm^2 dmol^−1 | 0.40 | -1.09E+04 deg cm^2 dmol^−1 | 18 % Inhib. | significantly inhibited inflammation | – | – | – | – | –
Ac-NLKQKIKHVVKLKDENSQLKSEVSKLRSQLVKRKQN-NH2 [Compound 275] | significantly inhibit cell migration | 60 % inhib. | -3.52E04 deg cm^2 dmol^−1 | 0.83 | -2.96E04 deg cm^2 dmol^−1 | 0.35 | 0.35 | – | – | -9.71E+03 deg cm^2 dmol^−1 | 0.35 | -3.35E+03 deg cm^2 dmol^−1 | 0 % Inhib. | – | – | – | – | – | –
Ac-VSKLRSQLVKRKQN-NH2 [Compound 132] | significantly inhibit cell migration | 36 % inhib. | – | – | – | 0.13 | 0.13 | 0.13 | nominal alpha helical character in water | – | – | – | 0 % Inhib. | – | 0.72 | -1.59E+04 deg cm^2 dmol^−1 | -4,85E+03 deg cm^2 dmol^−1 | -1.14E+04 deg cm^2 dmol^−1 | -1.10E+03 deg cm^2 dmol^−1
